Assay [1] has as its target bovine testes FSH receptors (bovine) (UniProt P35376). Nature of the assay: inhibition of 125I-hFSH binding to bovine testes FSH receptors.
The target in assay [2] is rat luteal ovarian LH receptors (rat) (UniProt P16235). Nature of the assay: inhibition of 125I-hCG binding to rat luteal ovarian LH receptors.

Results on 1 substance are retold here after US5508261.

On to eCG (ligand), for which, in assay [1], the activity relative to hFSH (FSH RECEPTORS; ratio of concentrations for 50% inhibition) (relative to recombinant hFSH) was 0.18. For the same substance, the activity relative to hCG (LH RECEPTORS; ratio of concentrations for 50% inhibition) (relative to recombinant hCG) in assay [2] is 0.53.
